How the values were obtained:
[1] = biological target: T1, TF3; experiment: SEC of the trivalent connector TF3, its three caps and the full mixture, with SDS-PAGE of the fractions; components named in the legend
T1 construct: Trivalent connector
T1 chain: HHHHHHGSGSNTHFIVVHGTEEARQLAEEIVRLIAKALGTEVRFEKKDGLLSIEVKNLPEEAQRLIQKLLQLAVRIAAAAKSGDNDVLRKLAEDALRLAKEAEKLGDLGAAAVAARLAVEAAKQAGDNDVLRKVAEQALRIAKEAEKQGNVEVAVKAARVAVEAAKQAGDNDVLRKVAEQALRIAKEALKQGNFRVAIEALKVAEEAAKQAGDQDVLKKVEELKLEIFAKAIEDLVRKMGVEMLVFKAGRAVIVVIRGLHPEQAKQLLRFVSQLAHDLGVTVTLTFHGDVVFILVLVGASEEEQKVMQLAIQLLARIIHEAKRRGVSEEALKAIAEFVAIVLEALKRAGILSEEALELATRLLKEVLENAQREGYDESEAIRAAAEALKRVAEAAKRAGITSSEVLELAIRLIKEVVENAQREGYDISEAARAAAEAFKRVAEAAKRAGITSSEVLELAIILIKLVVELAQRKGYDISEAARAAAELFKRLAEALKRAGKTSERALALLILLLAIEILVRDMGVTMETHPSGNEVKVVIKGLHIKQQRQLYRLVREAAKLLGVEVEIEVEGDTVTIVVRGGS

[2] = biological target: T2, TF10; experiment: SEC (A230) of A---, -BCD and ABCD and negative-stain EM; components named in the legend of FIG. 17A, which paragraph 104 ties to FIG. 4A
T2 construct: Trivalent connector
T2 chain: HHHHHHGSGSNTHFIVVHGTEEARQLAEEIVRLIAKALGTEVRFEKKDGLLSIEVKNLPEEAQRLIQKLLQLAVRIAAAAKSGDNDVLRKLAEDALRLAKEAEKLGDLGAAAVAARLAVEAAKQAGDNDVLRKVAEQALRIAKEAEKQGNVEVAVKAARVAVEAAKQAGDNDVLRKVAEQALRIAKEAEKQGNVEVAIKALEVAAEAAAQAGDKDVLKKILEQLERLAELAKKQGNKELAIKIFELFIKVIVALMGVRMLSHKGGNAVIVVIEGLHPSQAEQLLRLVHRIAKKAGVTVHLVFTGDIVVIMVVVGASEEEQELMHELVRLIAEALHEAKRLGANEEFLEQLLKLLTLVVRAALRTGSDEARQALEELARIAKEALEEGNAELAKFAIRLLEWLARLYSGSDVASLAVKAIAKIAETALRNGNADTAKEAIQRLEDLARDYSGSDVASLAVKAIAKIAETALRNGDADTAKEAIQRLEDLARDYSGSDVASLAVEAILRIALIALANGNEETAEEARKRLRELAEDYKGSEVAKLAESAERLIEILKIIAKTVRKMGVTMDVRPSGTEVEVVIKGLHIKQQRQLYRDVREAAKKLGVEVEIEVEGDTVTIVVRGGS
Description: Complexes and individual components were diluted in 20 mM Tris pH 8.0, 100 mM NaCl. After o/n equilibration of the mixtures at room temperature or 4 degrees C., 500 ul of sample was injected onto a Superdex™ 200 10/300 increase GL (dimers, linear assemblies) or Superose™ 6 increase 10/300 GL (symmetric assemblies) (all columns from GE healthcare) using the absorbance at 230 nm or 473 nm (for GFP tagged components) as read-out. Dimers were mixed at monomer concentrations of 5 μM or higher. Trimer and ABCD tetramer mixtures contained 5 μM of the bivalent connector, and 7.5 μM of each terminal cap (lower absolute concentrations with the same ratios were used for some trimers). ABCA tetramer mixtures contained 5 μM per bivalent connector and 15 μM terminal cap. The hexamer mixture contained 3 μM of components C and D, 3.6 μM of B and E, and 4.4 μM of A and F. The branched assembly shown in FIG. 4A contained 2.8 μM of the trivalent connector and 4 μM of each cap. For the exchange experiment shown in FIG. 5A, the ABC trimer was preincubated at concentrations of 6 μM B and 9 μM each of A and C. C′ was then added to reach a final concentration of 2 μM B, 3 μM each of A and C, and 6 μM C′.
SEC peak fractions were concentrated prior to negative stain EM screening. Samples were then immediately diluted 5 to 150 times in TBS buffer (25 mM Tris pH 8.0, 25 mM NaCl) depending on sample concentration. A final volume of 5 μL was applied to negatively glow discharged, carbon-coated 400-mesh copper grids (01844-F, TedPella, Inc.), then washed with Milli-Q™ Water and stained using 0.75% uranyl formate as previously described (53). Air-dried grids were imaged on a FEI Talos L120C TEM (FEI Thermo Scientific, Hillsboro, OR) equipped with a 4K×4K Gatan OneView™ camera at a magnification of 57,000× and pixel size of 2.51. Micrographs were imported into CisTEM software or cryoSPARC™ software and a circular blob picker was used to select particles which were then subjected to 2D classification. […]

[3] = biological target: T3, DFB0; experiment: SEC of mixed components; trimer listed in Table 6
T3 construct: Bivalent connector
T3 chain: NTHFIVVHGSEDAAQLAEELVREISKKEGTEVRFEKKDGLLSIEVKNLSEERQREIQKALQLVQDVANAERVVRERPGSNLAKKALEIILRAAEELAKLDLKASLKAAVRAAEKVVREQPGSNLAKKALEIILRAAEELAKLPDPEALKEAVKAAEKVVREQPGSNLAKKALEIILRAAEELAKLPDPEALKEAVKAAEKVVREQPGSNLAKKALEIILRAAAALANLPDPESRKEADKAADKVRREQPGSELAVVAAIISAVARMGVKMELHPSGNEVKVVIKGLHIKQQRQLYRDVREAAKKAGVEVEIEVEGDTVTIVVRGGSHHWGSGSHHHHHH

[4] = biological target: T4, DFB-1; experiment: SEC of mixed components; trimer listed in Table 6
T4 construct: Bivalent connector
T4 chain: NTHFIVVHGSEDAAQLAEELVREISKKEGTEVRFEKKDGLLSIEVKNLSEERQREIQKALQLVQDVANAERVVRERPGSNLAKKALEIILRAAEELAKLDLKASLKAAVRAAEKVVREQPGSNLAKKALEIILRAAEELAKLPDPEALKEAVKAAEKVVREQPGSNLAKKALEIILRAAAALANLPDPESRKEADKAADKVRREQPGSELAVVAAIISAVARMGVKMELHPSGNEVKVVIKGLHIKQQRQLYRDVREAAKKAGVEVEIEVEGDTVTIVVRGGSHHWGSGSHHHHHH

Measured: binding result

B1: 274A53 (designed binder)
chain: TTNFHLINGSEEARQLIEKAVRAISKKEGTEVHFEKSDGTLEIRVKNLHEKREREIKKVIELILEVAAAERIVRERPGSNLAKKALEIILRAAEELAKADVDAALEAAVRAAEKVVREQPGSNLAKKALEIILRAAEELAKLPDPEALKEAVKAAEKVVREQPGSELAKKALEIIERAAEELKKSPDPEAQKEAKKAEQKVREESGSHHWGSGLNDIFEAQKIEWHEGSHHHHHH
notes: also called LHD274A DHR53 stop; LHD274A53
binds: all assays above

B2: 101B62 (designed binder)
chain: HHHHHHGSGLNDIFEAQKIEWHEAENLYFQSGSNDEKRKRAEKALQRAQEAEKKGDVEEAVRAAQEAVRAAKESGDNDVLRKVAEQALRIAKEAEKQGNVEVAVKAARVAVEAAKQAGDNDVLRKVAEQALRIAKEALKQGNVDVAAKAAQVAEEAAKQAGDQDVLRKVKEVQIEIVLAAIELTVRKMGVTMETHRSGREVKVVIKGLHESQQEQLLEDVLRIAELAGVRVRIRFKGDTVTIVVRG
notes: also called LHD101B62
binds: all assays above

From US20240368233A1 (University of Washington, published 2024)
